These results are taken from the FLAb antibody collection (doi:10.7554/elife.23156).

To fix the notation:
B1: scFv; the commonest letter at each place (parent)
chain 1: EVKLDETGGGLVQPGRPMKLSCVASGFTFSDYWMNWVRQSPEKGLEWVAQIRNKPYNYETYYSDSVKGRFTISRDDSKSSVYLQMNNLRVEDMGIYYCTGSYYGMDYWGQGTSVTVS
chain 2: DVVMTQTPLSLPVSLGDQASISCRSSQSLVHSNGNTYLRWYLQKPGQSPKVLIYKVSNRFSGVPDRFSGSGSGTDFTLKISRVEAEDLGVYFCSQSTHVPWTFGGGTKLEIK

The variants in the data set “fluorescein” derive from B1. The data set is described as follows: Kd (Tite-Seq). The following applies: with fluorescein; format: scFv 4-4-20, heavy + light.
Data set [1] covers variants of B1. The data set is described as follows: yeast surface expression (ratio to wild type); higher = more expressed. The following applies: format: scFv 4-4-20, heavy + light.

chain 1 Y32R N35K: the Kd with fluorescein is ≥ 10 µM. In data set [1], the yeast surface expression is 1.99.
On the same counts, the results for chain 1 Y32L V37R are ≥ 10 µM and 0.0981.
For chain 1 Y102A Y107P, the Kd with fluorescein is ≥ 10 µM. In addition, in data set [1], the yeast surface expression was 0.707.
Turning to chain 1 Y32Q M34G V37K, in the data set with fluorescein, the Kd is ≥ 10 µM. For the same variant, the yeast surface expression in data set [1] worked out at 1.04.
On the same counts, the results for chain 1 Y32E W36H are ≥ 10 µM and 0.342.
For chain 1 Y32E W36N the same measures were ≥ 10 µM and 1.09.
On the same counts, the results for chain 1 Y32E W36Q are 0.216 µM and 0.493.
As for chain 1 Y32A W33S V37G, the Kd with fluorescein was ≥ 10 µM. Further, the yeast surface expression in data set [1] was 0.472.
For chain 1 Y32W V37S the same measures were ≥ 10 µM and 0.579.
Regarding chain 1 W108S G109N, the equilibrium dissociation constant (Kd) with fluorescein is ≥ 10 µM. Also, the yeast surface expression in data set [1] was 0.413.
In the case of chain 1 W108S G109R, the Kd with fluorescein was ≥ 10 µM. Moreover, the yeast surface expression in data set [1] was 0.307.
For chain 1 W108S G109S the same measures were 5.96 µM and 0.37.
As to chain 1 Y32Q W36N V37K, in the data set with fluorescein, the Kd was ≥ 10 µM. Besides, the yeast surface expression in data set [1] turned out to be 0.902.
On the same counts, the results for chain 1 Y32C N35M are ≥ 10 µM and 0.536.
For chain 1 Y102D Y103L G109P the same measures were ≥ 10 µM and 0.465.
For chain 1 Y102E G109N the same measures were ≥ 10 µM and 0.382.
On to chain 1 Y102E G109K, for which the Kd with fluorescein was ≥ 10 µM. For the same variant, the yeast surface expression in data set [1] was 0.317.
On the same counts, the results for chain 1 Y102E G104E are ≥ 10 µM and 0.934.
For chain 1 Y102E G104N the same measures were ≥ 10 µM and 0.819.
Take chain 1 Y32C W36R: the Kd in the data set with fluorescein is ≥ 10 µM. The yeast surface expression in data set [1] was found to be 0.506.
On the same counts, the results for chain 1 Y32M V37T are ≥ 10 µM and 0.538.
In the case of chain 1 Y32S W36F, the Kd with fluorescein worked out at 5.96 µM. For the same variant, the yeast surface expression in data set [1] turned out to be 0.853.
For chain 1 Y32C V37Q the same measures were ≥ 10 µM and 0.692.
On the same counts, the results for chain 1 Y32A V37Y are 0.205 µM and 1.23.
For chain 1 Y32D M34Y the same measures were ≥ 10 µM and 0.756.
With chain 1 Y32M W33V, the Kd with fluorescein is ≥ 10 µM. For the same variant, the yeast surface expression in data set [1] amounted to 0.941.
For chain 1 Y32M W33E the same measures were ≥ 10 µM and 1.18.
Regarding chain 1 Y32E N35G, the Kd in the data set with fluorescein was ≥ 10 µM. Also, in data set [1], the yeast surface expression was 1.
On the same counts, the results for chain 1 Y32E N35S are ≥ 10 µM and 0.87.
As for chain 1 Y32E W33T, the Kd with fluorescein was ≥ 10 µM. Also, in data set [1], the yeast surface expression came to 0.889.
Turning to chain 1 Y32E W33K, in the data set with fluorescein, the Kd was ≥ 10 µM. Moreover, the yeast surface expression in data set [1] is 0.742.
On to chain 1 Y102D D106T, for which, in the data set with fluorescein, the Kd was ≥ 10 µM. Moreover, in data set [1], the yeast surface expression was determined as 1.12.
For chain 1 Y102D D106Q the same measures were ≥ 10 µM and 0.733.
chain 1 Y32D W33E: the Kd with fluorescein is ≥ 10 µM. The yeast surface expression in data set [1] was 0.525.
On the same counts, the results for chain 1 Y32D W33V are ≥ 10 µM and 0.594.
In the case of chain 1 Y32L M34A, the Kd with fluorescein was ≥ 10 µM. Further, the yeast surface expression in data set [1] was found to be 0.634.
As for chain 1 Y32Q M34I, in the data set with fluorescein, the Kd was ≥ 10 µM. Further, in data set [1], the yeast surface expression stood at 0.765.
In the case of chain 1 Y32H V37Q, the Kd with fluorescein is ≥ 10 µM. The yeast surface expression in data set [1] amounted to 0.372.
For chain 1 Y32H V37T the same measures were ≥ 10 µM and 0.874.
For chain 1 Y32M M34Q the same measures were ≥ 10 µM and 0.437.
Consider chain 1 Y32A W33C, for which the Kd with fluorescein was ≥ 10 µM. In addition, the yeast surface expression in data set [1] is 0.924.
In the case of chain 1 Y32S W33F, the Kd with fluorescein was ≥ 10 µM. Also, the yeast surface expression in data set [1] is 0.984.
On the same counts, the results for chain 1 Y32S W33S are ≥ 10 µM and 0.838.
For chain 1 Y32G N35V the same measures were ≥ 10 µM and 0.513.
For chain 1 Y102A M105F the same measures were 0.00575 µM and 0.979.
Turning to chain 1 Y102A M105N, the Kd with fluorescein was 0.0113 µM. The yeast surface expression in data set [1] came out at 1.14.
For chain 1 Y102A M105T the same measures were 0.176 µM and 1.08.
For chain 1 Y102F G104H the same measures were ≥ 10 µM and 0.927.
On the same counts, the results for chain 1 Y102F G104K are ≥ 10 µM and 0.81.
For chain 1 Y32I M34F, the Kd with fluorescein was 5.66 µM. The yeast surface expression in data set [1] came to 0.871.
For chain 1 Y32I M34A the same measures were ≥ 10 µM and 0.821.
On the same counts, the results for chain 1 Y32I M34S are ≥ 10 µM and 0.65.
For chain 1 Y32P V37Y the same measures were ≥ 10 µM and 0.716.
With chain 1 Y32P V37G, in the data set with fluorescein, the Kd was ≥ 10 µM. For the same variant, the yeast surface expression in data set [1] is 2.54.
On the same counts, the results for chain 1 Y32S V37F are 8.13 µM and 0.891.
On the same counts, the results for chain 1 Y102F W108T are 0.000479 µM and 0.854.
On the same counts, the results for chain 1 Y102E D106M are ≥ 10 µM and 0.531.
As to chain 1 Y102E D106S, the Kd in the data set with fluorescein is ≥ 10 µM. In addition, in data set [1], the yeast surface expression turned out to be 1.01.

In general, Kd refers to the constant that tells how readily two partners part at equilibrium.
